Read-outs that look alike come from different tables or passages of the source. Blank lines part the entries; values can stand above or below the molecule they belong to.
Tests used:
[1] = biological target: T1, piglet OBP (Sus scrofa, UniProt P81245); experiment: Competitive fluorescent binding assay: displacement of 1-AMA from piglet OBP by odorants IPMP and IBMP; set-up: species or system porcine
T1 construct: made in house; host or cells: Pichia pastoris GS115 (pPIC9, alpha-mating factor secretion signal)
T1 sequence (P81245 with tags, fused parts or gaps): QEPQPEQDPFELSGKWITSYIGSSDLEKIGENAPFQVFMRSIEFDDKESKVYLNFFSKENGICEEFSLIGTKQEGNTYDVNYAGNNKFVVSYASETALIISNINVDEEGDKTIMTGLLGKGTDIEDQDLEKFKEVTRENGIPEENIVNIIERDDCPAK
Method: The interaction of odorants with AMA complex was examined by monitoring the decrease in fluorescence intensity of protein/1-AMA complex upon the addition of competitor compounds.
In competitive binding assays, 1-AMA (10 μM) was equilibrated with protein (2 μM) at pH 7.2 50 mM sodium phosphate buffer and pH 3.0 50 mM citrate phosphate buffer, and titrated with increasing concentrations of odorants (0-100 μM) solubilized in 10% v/v methanol.
The affinity of OBPs for odorants was estimated by plotting the decrease of intensity of 1-AMA fluorescence at the emission maximum, (22). Odorant concentrations causing fluorescence decay to half-maximal intensity (IC50 values) were determined from the plot of (I−Imin)/(I0−Imin) against the competitor concentration; I0 is the maximum of fluorescence intensity of the protein/1-AMA complex; I is the fluorescence intensity after addition of an aliquot of competitor, and Imin the fluorescence intensity at saturating concentration of the competitor.

[2] = Binding of human OBPIIaα to fluorescent probes 1,8 ANS and 1-AMA; conditions: pH 7.2 and 3.0
Method: The excitation wavelength of 372 nm was used for ANS and fluorescence emission intensity was monitored at 475 nm. […] The excitation wavelength of 290 nm was used and fluorescence emission intensity was monitored at 490 nm.
Fluorescence ligand binding experiments were performed on a Photon Technology International (London, Canada) Quanta Master Model QM2001 fluorometer at room temperature (19-20° C.), using 1 cm light path quartz cuvettes (Hellma). Slit width of 2 nm was used for excitation and emission for assaying a proteins except ratOBP1F, for which excitation and emission slit width of 6 nm was used.

[3] = physiological pH, published values; read-out: apparent Kd for IBMP / MPs, literature; cited from earlier work
[4] = Intrinsic fluorescence of human OBPIIaα at pH 7.2 and pH 3.0; type: physicochemical; conditions: pH 3.0 vs pH 7.2
[5] = Protein-MP binding reaction, complex removed by 10 kDa cut-off PES membrane filtration, free IPMP by HS SPME GC/MS
Method: (§1) The freeze dried preparations of pIOBP and mMUPII were resuspended in phosphate citrate buffers at pH 3.0, 3.5 or 4.0 or phosphate buffer at pH 7.2, to final concentrations between 40-50 μM. The protein solutions, in a 2 ml volume, were spiked with IBMP or IPMP at 300 ng/l and allowed to incubate in a glass vial for 2 h, at RT on a gel shaker. In binding reactions using bentonite to remove the protein-MP complex, the binding reactions were performed in pH 3.5 and pH 4 using bentonite (3 g/l) to remove the protein and protein-ligand complex. To remove any residual bentonite from the reaction, samples were also filtered through a 0.22 μm Durapore filter unit (Millipore). In another assay using a 10 kDa cutoff filter to remove the protein-MP complex, the binding reactions were performed in buffer at pH 3 and pH 7.2. The reactions were centrifuged through a 10 KDa molecular weight cut-off (10MWCO) Omega filter unit made of polyethersulfone (PALL Life Sciences) to separate the proteins and bound MP from the free MP fraction. The concentration of free (unbound) MP fraction was then determined using HS SPME GC/MS. The limit of quantification for the compound IBMP was determined to be 6 ng/L and for IPMP was 2 ng/L, based on 10 times signal/noise. The limit of detection for MPs in the present system is 1.8 ng/L for IBMP and 0.6 ng/L for IPMP as calculated based on 3 times the signal/noise ratio. The data has been reported to the limit of quantification in the figures.
(§2) For the membrane filtration trials, the starting concentration of MPs in the reaction were tested, the free MPs after the 10MWCO filtration without addition of protein were tested, and the free MPs in solution after the protein binding reaction and filtration were tested.

[6] = Protein-MP binding reaction, complex removed by 10 kDa cut-off PES membrane filtration, free IBMP by HS SPME GC/MS
Method: as §1, §2

[7] = Protein-MP binding reaction, complex removed by bentonite fining and 0.22 μm filtration, free IBMP by GC/MS; conditions: Chardonnay Juice at pH 3.5
Method: as §1, with “The” for “The freeze dried preparations of pIOBP and mMUPII were resuspended in phosphate citrate buffers at pH 3.0, 3.5 or 4.0 or phosphate buffer at pH 7.2, to final concentrations between 40-50 μM. The”, “figures. […]” for “figures.”

[8] = pH of binding: 7.4; cited from earlier work

IC50 ([1]; pH 3.0): 5.98 µM
Kd ([1]; pH 3.0, calculated from IC50, read-out: Kd for piglet OBP): 2.34 µM
Kd ([1]; pH 3, read-out: apparent Kd for pIOBP): 2.1 µM
higher affinity for pIOBP at pH 3.0 compared with pH 7.2 ([1]; pH 3.0 vs pH 7.2): about 2 fold
IC50 ([1]; pH 7.2): 32.8 µM
Kd ([1]; pH 7.2, calculated from IC50, read-out: Kd for piglet OBP): 4.46 µM
Kd ([1]; pH 7.2, read-out: apparent Kd for pIOBP): 4.5 µM
Molecule: COc1nccnc1C(C)C [IPMP, 2-isopropyl-3-methoxypyrazine]

binding to fluorescent probes [2]: shows binding
B1: human OBPIIaα: human odorant binding protein IIa alpha (Genbank AJ251021, UniProt Q9NY56), recombinant from P. pastoris (protein, UniProt Q9NY56 16-170, looked up)
Odorant-binding protein 2a: LSFTLEEEDITGTWYVKAMVVDKDFPEDRRPRKVSPVKVTALGGGNLEATFTFMREDRCIQKKILMRKTEEPGKFSAYGGRKLIYLQELPGTDDYVFYCKDQRRGGLRYMGKLVGRNPNTNLEALEEFKKLVQHKGLSEEDIFMPLQTGSCVLEH
modifications: recombinant from Pichia pastoris
Kd [3]: 900 to 1100 nM
protein conformation on acidification (tryptophan emission maximum) [4]: does not modify protein conformation

IPMP concentration after protein treatment and 10 MWCO filtration ([5]; juice): 4 ng/L
IPMP concentration after protein treatment and 10 MWCO filtration ([5]; pH 3.0 buffer): 3 ng/L
IPMP concentration after protein treatment and 10 MWCO filtration ([5]; pH 7.2 buffer): 3 ng/L
IBMP concentration after protein treatment and 10 MWCO filtration ([6]; Chardonnay juice, limit of quantification): 6 ng/L
IBMP concentration after protein treatment and 10 MWCO filtration ([6]; pH 3.0 buffer, 300 ng/l spike, limit of quantification): 6 ng/L
IBMP concentration after protein treatment and 10 MWCO filtration ([6]; pH 7.2 buffer, 300 ng/l spike): 11 ng/L
IBMP reduction by protein beyond bentonite and filter [7]: further reduced
B2: mouse MUPII: mouse major urinary protein isoform II (Genbank AJ309921, Uniprot P11589), recombinant from P. pastoris (protein, UniProt P11589 19-180, looked up)
Major urinary protein 2: EEASSTGRNFNVEKINGEWHTIILASDKREKIEDNGNFRLFLEQIHVLEKSLVLKFHTVRDEECSELSMVADKTEKAGEYSVTYDGFNTFTIPKTDYDNFLMAHLINEKDGETFQLMGLYGREPDLSSDIKERFAKLCEEHGILRENIIDLSNANRCLQARE
modifications: recombinant from Pichia pastoris
Kd [3]: 940 nM

B3: mouse MUPI: mouse major urinary protein I (Uniprot P11588), differs from MUPII by three amino acid residues (protein, UniProt P11588 19-180, looked up)
Major urinary protein 1: EEASSTGRNFNVEKINGEWHTIILASDKREKIEDNGNFRLFLEQIHVLENSLVLKFHTVRDEECSELSMVADKTEKAGEYSVTYDGFNTFTIPKTDYDNFLMAHLINEKDGETFQLMGLYGREPDLSSDIKERFAQLCEKHGILRENIIDLSNANRCLQARE
binding of methoxypyrazines [8]: binds both IPMP and IBMP

Reference: US8859026B2, “Method for reducing methoxypyrazines in grapes and grape products” (Brock University, priority 2009, dated 2014)
